Test results reported in patent publication US20250382369A1 (UCL BUSINESS, published 2025).
Positions count from the first letter of the chain named. Blank lines part the entries; values can stand above or below the binder they belong to.

Columns and labels:
[1] = biological target: T1, human 4Ig-B7-H3 expressed on transduced cells (human, UniProt Q5ZPR3 29-534); assay: flow cytometry, scFv-Fc on Jurkat cells transduced with B7-H3 isoforms (FIG. 2D)
T1 construct: also called isoform 1; Jurkat-B7H3
T1 sequence: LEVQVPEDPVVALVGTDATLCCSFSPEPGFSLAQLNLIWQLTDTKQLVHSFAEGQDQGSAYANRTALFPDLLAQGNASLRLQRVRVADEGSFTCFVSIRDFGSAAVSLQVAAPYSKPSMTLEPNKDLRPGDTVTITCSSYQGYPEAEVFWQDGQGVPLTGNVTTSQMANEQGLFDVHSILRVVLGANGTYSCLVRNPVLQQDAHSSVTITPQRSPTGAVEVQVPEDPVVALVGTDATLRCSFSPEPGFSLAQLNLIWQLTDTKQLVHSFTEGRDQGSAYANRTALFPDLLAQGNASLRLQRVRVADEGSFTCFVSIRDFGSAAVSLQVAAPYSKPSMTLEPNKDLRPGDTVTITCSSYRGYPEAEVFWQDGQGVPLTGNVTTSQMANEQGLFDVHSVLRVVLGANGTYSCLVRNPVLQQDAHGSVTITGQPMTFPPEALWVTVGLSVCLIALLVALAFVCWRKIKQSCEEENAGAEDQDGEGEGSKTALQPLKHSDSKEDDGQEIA

[2] = biological target: T2, recombinant mouse B7-H3 (plate bound) (mouse, UniProt Q8VE98 29-244, limits assumed); assay: binding ELISA with immobilised recombinant protein (FIG. 28C)
T2 sequence (looked up): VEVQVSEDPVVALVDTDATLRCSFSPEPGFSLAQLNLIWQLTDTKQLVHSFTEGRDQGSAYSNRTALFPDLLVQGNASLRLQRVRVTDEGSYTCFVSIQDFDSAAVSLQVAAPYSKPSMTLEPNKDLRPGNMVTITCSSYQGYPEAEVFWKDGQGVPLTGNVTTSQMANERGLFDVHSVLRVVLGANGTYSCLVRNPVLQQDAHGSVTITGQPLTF
Method: (§1) TC6, TF9 and BH6 were produced as chimeric antibodies with a human IgG1 Fc domain. Antibodies were purified on protein A columns (Cytiva) and were tested in ELISA against plate bound antigen, with detection using goat anti-human IgG (H+L) (SeraCare). Cross reactivity against mouse B7-H3 was tested using flow cytometry against the mouse cell line 3T3/NA1.

[3] = biological target: T3, human B7H3 expressed on cell surface (human, UniProt Q5ZPR3 29-534); assay: flow cytometry, chimeric IgG1 and anti-human secondary on neuroblastoma lines and B7-H3 positive Jurkat lines (FIG. 6)
T3 construct: whole, on cells; also called B7-H3 on LAN-1, Kelly, IMR-32 and other B7-H3 positive target cell lines
T3 sequence (looked up): T1 sequence
From the text: FIG. 6—Chimeric antibodies derived from TE9 and BH6 show specificity for human B7H3 expressed on cell surface. TE9 and BH6 ScFv that had been cloned into full human IgG1 antibodies were used in staining experiments. A. Chimeric human IgG1 full antibodies derived from TE9 and BH6 ScFvs were used to stain 3 neuroblastoma cell lines, LAN-1, Kelly and IMR-32. […] B. Chimeric antibodies TE9 and BH6 were used to stain the 3 B7-H3 positive Jurkat cell lines, 4Ig-B7-H3, 2Ig-B7-H3 and T-B7-H3 (see FIG. 2)

[4] = biological target: T4, mouse B7-H3 on the mouse cell line 3T3/NA1 (mouse, UniProt Q8VE98 29-316); assay: flow cytometry on the mouse cell line 3T3/NA1 (FIG. 5A)
T4 construct: whole, on cells
T4 sequence (looked up): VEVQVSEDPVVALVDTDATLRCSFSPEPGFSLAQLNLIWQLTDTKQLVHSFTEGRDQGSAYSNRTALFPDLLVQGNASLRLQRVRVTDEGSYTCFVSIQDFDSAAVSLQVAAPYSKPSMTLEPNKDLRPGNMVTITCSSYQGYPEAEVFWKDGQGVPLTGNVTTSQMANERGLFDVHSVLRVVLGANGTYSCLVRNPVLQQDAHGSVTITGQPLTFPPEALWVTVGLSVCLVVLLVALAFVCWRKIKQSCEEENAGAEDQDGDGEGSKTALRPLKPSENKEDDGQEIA
Method: as §1

B2: TC6 scFv-Fc fusion protein (Fc fusion, not shown: a dimerising Fc or GST; small tags and cut ends)
scFv: QVKLQESGAELVKPGASVKLSCKASGYTFTSYWIHWVKQRPGQGLEWIGMIHPKSGSINYNEKFRSKATLTVDKSSSTAYMQLSRLTSEDSAVYFCASGGYGSSLDYWGQGTTVTVSSGGGGSGGGGSGGGGSQIVLTQSPAIMSASPGEKVTMTCSASSSVSYMYWYQQKPRSSPISWIYLTSNLASGVPARFSGSGSGTSYSLTISSMEAEDAATYYCQQWSSDPLTFGAGTKLELK
binding result [1]: binds

B3: TF9 scFv-Fc fusion protein (Fc fusion)
scFv: B2 scFv with Q134E, I135N, M154I, T155S, M165V, R173G, I177K, S178P, L182R, D226N
notes: not shown: Fc of the scFv-Fc fusion, and any hinge or junction to it
binding result [1]: binds

B4: TE9 chimeric human IgG1 full antibody (antibody, V domains shown)
VH: QVQLQQSGAALVKPGTSVKLSCKASGYTFTSYWMHWVKQRPGQGLEWIGMIHPKSGSVDYNEKFTNKATLTGDKSSGTAYMQLSSLTSEDSAVYYCARGGYGSPFDYWGQGTTVTVSS
VL: ENVLTQSPAIMSASPGEKVTMTCSASSSVSYMYWYQQKPGSSPRLLIYRTSNLASGVPARFSGSGSGTSYSLTISSMEAEDAATYYCQQWSSNPPTFGGGTKLEIK
notes: Chimeric antibody, mouse variable domains cloned into full human IgG1; also called TE9 antibody; TE9 whole antibody
binding result [2]: no binding
binding result [3]: binds

B7: TE9 scFv-Fc fusion protein (Fc fusion, not shown: a dimerising Fc or GST; small tags and cut ends)
scFv: QVQLQQSGAALVKPGTSVKLSCKASGYTFTSYWMHWVKQRPGQGLEWIGMIHPKSGSVDYNEKFTNKATLTGDKSSGTAYMQLSSLTSEDSAVYYCARGGYGSPFDYWGQGTTVTVSSGGGGSGGGGSGGGGSENVLTQSPAIMSASPGEKVTMTCSASSSVSYMYWYQQKPGSSPRLLIYRTSNLASGVPARFSGSGSGTSYSLTISSMEAEDAATYYCQQWSSNPPTFGGGTKLEIK
binding result [1]: binds

More lines, now with the values ahead:

binding result [1]: binds
B1: BH6 scFv-Fc fusion protein (Fc fusion, not shown: a dimerising Fc or GST; small tags and cut ends)
scFv: QVKLQQSGADLVKPGASVKLSCKASGYTFTSYWMHWVKQRPGQGLEWIGMIHPNSDGTNYNEKFKNRATLTVDKSSSTAYMQLNSLTSEDSAVYYCARWSYGMDSWGQGTTVTVSSGGGGSGGGGSGGGGSDIVLTQSPASLAVSLGQRATITCSASSSVSYMHWYQQKSGTSPKRWIYDTSKLASGVPARFSGSGSGTSYSLTISSMEAEDAATYYCQQWSRNPLTFGAGTKLEIK

binding result [1]: binds
B5: BF9 scFv-Fc fusion protein (Fc fusion)
scFv: QVKLQQSGAELVKPGASVKLSCKASGYTFTSYWVHWVKQRPGQGLEWIGMIHPKSGSADYNEKFTTKATLTADKSSSTAYMQLSSLTSEDSAVYYCARGGYGSPFDYWGQGTTVTVSSGGGGSGGGGSGGGGSENVLTQSPAIMSASPGEKVTMTCSASSSVSYMYWYQQKPGSSPRLLIYDTSNLASGAPVRFSGRGSGTSYSLTISSMEAEDAATYYCQQWSNNPLTFGAGTKLELK
notes: as for B3

binding result [4]: binds
binding result [3]: binds
B6: BH6 chimeric human IgG1 full antibody (antibody, V domains shown)
VH: QVKLQQSGADLVKPGASVKLSCKASGYTFTSYWMHWVKQRPGQGLEWIGMIHPNSDGTNYNEKFKNRATLTVDKSSSTAYMQLNSLTSEDSAVYYCARWSYGMDSWGQGTTVTVSS
VL: DIVLTQSPASLAVSLGQRATITCSASSSVSYMHWYQQKSGTSPKRWIYDTSKLASGVPARFSGSGSGTSYSLTISSMEAEDAATYYCQQWSRNPLTFGAGTKLEIK
notes: Chimeric antibody with a human IgG1 Fc domain; also called BH6 antibody
